Laboratory results from article PMC4832424.

Experiments:
GST-TOG1/2 = test: pull-down
[1] = biological target: TUBB3-D417H (recombinant α/β-tubulin heterodimer with human TUBB3 D417H) (Homo sapiens) (UniProt P68363); test: TIRF microscopy single-filament polymerization assay
[2] = biological target: wild-type TUBB3 (recombinant α/β-tubulin heterodimer with human β-tubulin isotype III) (Homo sapiens) (UniProt P68363); test: as above

| Kd (GST-TOG1/2) [nM] | apparent association rate constant k+ of tubulin subunits at minus-ends [1] [M⁻¹ s⁻¹] | apparent dissociation rate constant k- of tubulin subunits at minus-ends [1] [s⁻¹] | apparent association rate constant k+ of tubulin subunits at plus-ends [2] [M⁻¹ s⁻¹] | apparent dissociation rate constant k- of tubulin subunits at plus-ends [2] [s⁻¹] | Substance |
| --- | --- | --- | --- | --- | --- |
| 1200 | 1.4e+06 | 1.2 |  |  | TUBB3-D417H (recombinant α/β-tubulin heterodimer with human TUBB3 D417H) (from UniProt P68363-1 1-437; Q13509-1 1-426) (complex) |
| 400 |  |  | 1.7e+06 | 1.1 | wild-type TUBB3 (recombinant α/β-tubulin heterodimer with human β-tubulin isotype III) (from UniProt P68363-1 1-437; Q13509-1 1-426) (complex) |
